T1: human IL-12Rβ2, Acro (BLI analyte) (human, UniProt Q99665 24-622, limits assumed)
T1 sequence (looked up): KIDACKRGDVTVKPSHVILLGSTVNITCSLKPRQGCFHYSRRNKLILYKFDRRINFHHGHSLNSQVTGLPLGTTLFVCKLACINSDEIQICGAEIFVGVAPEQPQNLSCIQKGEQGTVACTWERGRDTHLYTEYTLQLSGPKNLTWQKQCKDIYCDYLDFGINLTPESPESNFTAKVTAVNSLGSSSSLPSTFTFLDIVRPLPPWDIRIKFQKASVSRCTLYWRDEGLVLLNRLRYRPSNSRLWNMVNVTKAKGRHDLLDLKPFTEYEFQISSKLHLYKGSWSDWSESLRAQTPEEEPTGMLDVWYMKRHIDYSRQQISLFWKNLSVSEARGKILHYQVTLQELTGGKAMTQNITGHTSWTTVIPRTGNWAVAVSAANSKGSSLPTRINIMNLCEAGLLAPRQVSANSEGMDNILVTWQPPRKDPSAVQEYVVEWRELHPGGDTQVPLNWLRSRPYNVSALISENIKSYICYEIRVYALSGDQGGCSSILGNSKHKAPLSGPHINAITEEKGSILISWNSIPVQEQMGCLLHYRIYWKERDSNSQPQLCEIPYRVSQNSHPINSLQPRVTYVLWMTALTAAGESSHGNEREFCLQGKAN

T2: cyno IL-12RB2 with C-terminal HA tag, transiently expressed on HEK-293T cells (cyno, UniProt A0A2K5VNI7 24-860)
T2 construct: whole, on cells; also called cyno IL-12Rβ2
T2 sequence: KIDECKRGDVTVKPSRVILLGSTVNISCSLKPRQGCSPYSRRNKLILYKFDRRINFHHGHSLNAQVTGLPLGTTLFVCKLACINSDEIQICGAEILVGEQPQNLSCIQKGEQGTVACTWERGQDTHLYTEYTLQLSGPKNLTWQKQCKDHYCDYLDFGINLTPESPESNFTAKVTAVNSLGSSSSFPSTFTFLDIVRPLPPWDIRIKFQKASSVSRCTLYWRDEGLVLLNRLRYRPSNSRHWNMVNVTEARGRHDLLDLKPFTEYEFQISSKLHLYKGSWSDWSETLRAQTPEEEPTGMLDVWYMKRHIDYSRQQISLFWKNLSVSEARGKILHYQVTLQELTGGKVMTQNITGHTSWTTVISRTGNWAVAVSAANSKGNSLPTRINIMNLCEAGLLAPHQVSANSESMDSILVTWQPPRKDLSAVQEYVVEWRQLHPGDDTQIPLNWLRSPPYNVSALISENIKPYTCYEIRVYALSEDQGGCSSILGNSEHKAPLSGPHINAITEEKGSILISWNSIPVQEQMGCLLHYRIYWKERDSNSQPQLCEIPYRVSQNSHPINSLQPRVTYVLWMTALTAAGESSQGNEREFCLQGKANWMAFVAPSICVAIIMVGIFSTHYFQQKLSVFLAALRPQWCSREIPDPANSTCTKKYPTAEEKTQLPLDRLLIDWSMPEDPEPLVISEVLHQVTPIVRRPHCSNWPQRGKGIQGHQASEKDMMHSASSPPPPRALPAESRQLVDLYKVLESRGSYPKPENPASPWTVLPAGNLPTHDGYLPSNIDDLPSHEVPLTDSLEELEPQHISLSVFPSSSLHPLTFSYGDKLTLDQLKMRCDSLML

T3: human IL-12Rβ2-huFc-his (R&D system), biotinylated (human, UniProt Q99665 24-622, limits assumed, biotinylated)
T3 construct: bought; captured on Neutravidin in the ELISA; also called Bio-huIL-12Rβ2-huFc-His
T3 sequence (looked up): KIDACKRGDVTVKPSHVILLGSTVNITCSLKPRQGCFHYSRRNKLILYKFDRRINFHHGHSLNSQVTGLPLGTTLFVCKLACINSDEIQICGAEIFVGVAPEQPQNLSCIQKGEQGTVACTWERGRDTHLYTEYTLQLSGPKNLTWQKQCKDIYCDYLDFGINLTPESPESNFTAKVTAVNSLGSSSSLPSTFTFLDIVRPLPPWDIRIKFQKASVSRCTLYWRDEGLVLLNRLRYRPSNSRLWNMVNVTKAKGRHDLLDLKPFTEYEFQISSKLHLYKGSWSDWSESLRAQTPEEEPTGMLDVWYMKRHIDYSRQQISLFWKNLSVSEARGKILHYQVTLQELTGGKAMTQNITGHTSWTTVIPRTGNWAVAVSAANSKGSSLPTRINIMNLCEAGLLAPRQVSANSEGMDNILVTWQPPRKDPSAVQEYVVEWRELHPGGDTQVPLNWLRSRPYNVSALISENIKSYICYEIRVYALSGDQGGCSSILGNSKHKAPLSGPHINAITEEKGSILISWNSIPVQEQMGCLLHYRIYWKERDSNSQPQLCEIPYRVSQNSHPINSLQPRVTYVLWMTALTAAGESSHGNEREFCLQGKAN


Tests used:
[1] = molecular target: human IL-12 receptor (IL-12Rβ1 and IL-12Rβ2) on HEK-Blue IL-12 cells (human, UniProt P42701 24-662; Q99665 24-862); test: cell-based or functional assay
[2] = molecular target: T1, human IL-12Rβ2, Acro (BLI analyte); test: BLI (Octet), antibody on AHC tip
[3] = molecular target: human IL-12Rβ1, Acro (BLI analyte) (human, UniProt P42701 24-545); test: BLI (Octet), antibody on AHC tip
[4] = molecular target: T2, cyno IL-12RB2 with C-terminal HA tag, …; test: FACS, periplasmic extract, HEK-293T
[5] = molecular target: T3, human IL-12Rβ2-huFc-his (R&D system), …; test: ELISA, periplasmic extract

Binder | EC50 [1] | Max Absorbance [1] | Kd [2] [nM] | Kd [3] [nM] | FOB [4] [fold] | OD450 nm [5]
DGL482 (bispecific antibody, V domains shown, 67B1 x 64B2) V domain 1: QVQLVESGGGLVQAGGSLRLSCAASARIFNSYAVAWFRQTPGKEREFVASISWSGGSTNYADSVKGRFTISRDNAKNTVFLQMNSLKPADTAVYYCAADRNYYPSVLGKYTYWGQGTQVTVEP V domain 2: QVQLVESGGGLVQPGGSLRLSCAASGFTFSSKAMHWFRQAPGKGLEWVSSINSGGAITYYKDSVKGRFTVSRDNAKNILYLEMNSLKPEDTALYYCATDTDGRTRGQGTQVTVEP | 2.9e-09 M (implied) | 0.68 | 7.4 | 6.83 |  | 
DGL487 (bispecific antibody, V domains shown, 67B1 x 190B2) V domain 1: QVQLVESGGGLVQAGGSLRLSCAASARIFNSYAVAWFRQTPGKEREFVASISWSGGSTNYADSVKGRFTISRDNAKNTVFLQMNSLKPADTAVYYCAADRNYYPSVLGKYTYWGQGTQVTVEP V domain 2: QVQLQESGPGLVKPSQTLSLTCTVSGGSITTNYYYWSWIRQPPGKGLEWMGAIAYSGSTYYSPSLKSRTSISRDTSKNQFTLQLSSVTPEDTAVYYCASGINFYSNYPTLNEYDYWGQGTQVTVEP | 3.1e-09 M (implied) | 0.64 | 16.1 | 5.49 |  | 
DGL412 (bispecific antibody, human IgG1, kappa, 85801_05G01A x 13B2) heavy 1: not shown heavy 2: QVQLVESGGGLVRPGGSLRLSCAASGFTFSSNGMHWFRQAPGKGLEWVSSIGSGGTSIYYADSVKGRFTISRDNAKNTLYLQMNSLKSDDTAVYYCSKEVTGATRGQGTQVTVEPKSSDKTHTCPPCPAPEAAGAPSVFLFPPKPKDTLMISRTPEVTCVVVDVSHEDPEVKFNWYVDGVEVHNAKTKPREEQYNSTYRVVSVLTVLHQDWLNGKEYKCKVSNKALPAPIEKTISKAKGQPREPQVCTLPPSRDELTKNQVSLSCAVKGFYPSDIAVEWESNGQPENNYKTTPPVLDSDGSFFLVSKLTVDKSRWQQGNVFSCSVMHEALHNRFTQKSLSLSPG light: DIQMTQSPSSLSASVGDRVTITCRASQGIGNYLAWFQQRPGKAPKSLIYAASSLQSGVPSKFSGSGSGTDFTLTISSLQPADFAIYYCQQYNIYPYTFGPGTRLEIKRTVAAPSVFIFPPSDEQLKSGTASVVCLLNNFYPREAKVQWKVDNALQSGNSQESVTEQDSKDSTYSLSSTLTLSKADYEKHKVYACEVTHQGLSSPVTKSFNRGEC | > 100 nM | 1.28 | 2.21 | 11.3 |  | 
DGL607 (bispecific antibody, V domains shown, 86B1 x 278B2) V domain 1: QVQLVESGGGLMQAGGSLRLSCALSRGIFSAYAMGWFRQVQGKEREFVSGISRSGSTTDYVDTAKGRFTISRDNARDTVYLQMNSLKPEDTAVYYCAAVTGTFPSSTYHNANAYHHWGQGTQVTVEP V domain 2: QVQLVESGGGLVQAGGSLKLSCAASGGTFSSYAMGWFRQAPGKEREFVAVIMRSGDTTAYVDSVKGRFTVSRDNAKNTVYLQMNSLKPEDAAVYFCAAGRPVTRTYYHTYTYPHDYDYWGQGTQVTVEP | 7e-09 M (implied) | 0.61 | 11.8 | 27.4 |  | 
VHH93B2 (VHH) VHH: QVQLVESGGGLVQPGGSLRLSCAASGFTFEPYDMSWFRQAPGKGPEWVSAIDKGGGAGATYYADSVKGRFTISRDNAKKTLYLQMKSLKPEDTAVYYCAITAGPYSDSTPRVAYRGEGTQVTVSS |  |  |  |  | 1.35 | 0.151
DGL444 (bispecific antibody, human IgG1, lambda, 195B1 x 85802_08F20A) heavy 1: not shown heavy 2: QVQLVQSGAEVKKPGASVKVSCKASGYTFIGYYIHWVRQAPGQGLEWMGWINPHSGGTNYAQKFQGRVTMTRDTSISTAYMELSRLRSDDTAIYYCTKEANNWGYAFDIWGQGTMVTVSSASTKGPSVFPLAPSSKSTSGGTAALGCLVKDYFPEPVTVSWNSGALTSGVHTFPAVLQSSGLYSLSSVVTVPSSSLGTQTYICNVNHKPSNTKVDKKVEPKSCDKTHTCPPCPAPEAAGAPSVFLFPPKPKDTLMISRTPEVTCVVVDVSHEDPEVKFNWYVDGVEVHNAKTKPREEQYNSTYRVVSVLTVLHQDWLNGKEYKCKVSNKALPAPIEKTISKAKGQPREPQVCTLPPSRDELTKNQVSLSCAVKGFYPSDIAVEWESNGQPENNYKTTPPVLDSDGSFFLVSKLTVDKSRWQQGNVFSCSVMHEALHNRFTQKSLSLSPG light: not shown | 1.5e-10 M (implied) | 0.61 | 0.386 | 8.96 |  | 
DGL426 (bispecific antibody, human IgG1, lambda) heavy 1: not shown heavy 2: QVQLVQSGAEVKKPGASVKVSCKASGYTFIGYYIHWVRQAPGQGLEWMGWINPHSGGTNYAQKFQGRVTMTRDTSISTAYMELSRLRSDDTAIYYCTKEANNWGYAFDIWGQGTMVTVSSASTKGPSVFPLAPSSKSTSGGTAALGCLVKDYFPEPVTVSWNSGALTSGVHTFPAVLQSSGLYSLSSVVTVPSSSLGTQTYICNVNHKPSNTKVDKKVEPKSCDKTHTCPPCPAPEAAGAPSVFLFPPKPKDTLMISRTPEVTCVVVDVSHEDPEVKFNWYVDGVEVHNAKTKPREEQYNSTYRVVSVLTVLHQDWLNGKEYKCKVSNKALPAPIEKTISKAKGQPREPQVCTLPPSRDELTKNQVSLSCAVKGFYPSDIAVEWESNGQPENNYKTTPPVLDSDGSFFLVSKLTVDKSRWQQGNVFSCSVMHEALHNRFTQKSLSLSPG light: not shown | 2.7e-10 M (implied) | 1.24 | 0.321 | 15.9 |  | 
VHH219B2 (VHH) VHH: QVQLEESGGGLVQAGGSLRLSCAASGRTFSSYVVGWFRQAPGKEREFVGRISWSGARTYYADSVEGRFTISRDNAKNTVYLQMNSLKPEDTAVYYCAADLKWEVLLSEHYEYWGQGTQVTVSS |  |  |  |  | 0.99 | 0.237
DGL515 (bispecific antibody, V domains shown, 97B1 x 85B2) V domain 1: QVQLVESGGGLAQAGGSLRLSCAASGRTFSNDDMAWFRQAPGKEREFVAHIDRNAASTNYADSVKGRFTISRDNAKNTVYLQMTRLKPEDTAVYYCAADPDHFGTTWYQQYTYWGPGTQVTVEP V domain 2: QVQLVESGGGLVQAGGSLRVSCAASGRIPSLNTMAWYRQAPGKQREFVAFITNGGTTNYVDSVEGRFSISRDNTKNAVDLQMNSLKPEDTGVYYCNVQISQYPYNYWGQGTQVTVEP | > 100 nM | 0.64 | < 0.001 | 20.8 |  | 
DGL586 (bispecific antibody, V domains shown, 258B1 x 19B2) V domain 1: QVQLVESGGGLVQAGGSLRLSCAASGRTFSSYVMGWFRQAPGQEREFVAAIMRNGIMTYYADSVKGRFTISRDNAKNTVYLQMNTLKPDDTAVYYCAAASRVGVSISQSSSYTSWGQGTQVTVEP V domain 2: QVQLVESGGGLVQPGGSLRLSCAASGFTFSNYAMSWVRQAPGKGLEWVSAINSDGTSTSYADSVKGQFTISRDNAKNTLYLQMNSLKPEDTAVYYCTKWEGDTDSDYKFKDYWGQGTQVTVEP | 7.7e-11 M (implied) | 0.6 | 0.768 | 7.26 |  | 
DGL551 (bispecific antibody, V domains shown, 195B1 x 185B2) V domain 1: QVQLVESGGGLVQAGGSLRLSCAASGRTFGTYAMGWFRQAPGKERDFVARISNSGAFTHYADSVKGRFTISRDNAKNTVYLHMNSLENGDTAAYYCVATRGTNSAYYTRSTMYEYWGQGTQVTVEP V domain 2: QVQLVESGGGLVQAGGSLRLSCAASGRTFSRYRMGWFRQAPGKEREFVAAITKSGATTYDADSVKGRFTISRDNAKNTLYLQMNSLKPEDTAVYYCAASYHSNWWPKNADEYAYWGQGTQVTVEP | 4.7e-09 M (implied) | 0.59 | 8.29 | 10.6 |  | 

Reference: US20250019450A1 (DIAGONAL THERAPEUTICS, published 2025)
